In patent US20230331848A1 (BIOSION, published 2023):
Where two headings read alike, the source gives them in different places.

B1: humanized antibody huE1A9C8A7-V3 (antibody, human IgG4 S228P, kappa, V domains shown)
VH: QVQLVQSGAEVVKPGASVKISCKASGYTFSDYVMHWVRQAPGQSLEWIGVISTYHIPAVYNQKFKGKATMTVDKSTSTVYLELSSLRSEDTAVYYCAREVYGDSYYFDVWGQGTTVTVSS
VL: DIVMTQTPLSLPVTPGEPASISCRSSQSIVHSNGNTYLEWYLQKPGQSPQLLIYKVSNRFSGVPDRFSGSGSGTDFTLKISRVEAEDVGVYYCFQGSHVPYTFGGGTKVEIKR
notes: Human IgG4/kappa
B2: Pembrolizumab (antibody, V domains shown)
VH: QVQLVQSGVEVKKPGASVKVSCKASGYTFTNYYMYWVRQAPGQGLEWMGGINPSNGGTNFNEKFKNRVTLTTDSSTTTAYMELKSLQFDDTAVYYCARRDYRFDMGFDYWGQGTTVTVSS
VL: EIVLTQSPATLSLSPGERATLSCRASKGVSTSGYSYLHWYQQKPGQAPRLLIYLASYLESGVPARFSGSGSGTDFTLTISSLEPEDFAVYYCQHSRDLPLTFGGGTKVEIKR
B3: Nivolumab (antibody, V domains shown)
VH: QVQLVESGGGVVQPGRSLRLDCKASGITFSNSGMHWVRQAPGKGLEWVAVIWYDGSKRYYADSVKGRFTISRDNSKNTLFLQMNSLRAEDTAVYYCATNDDYWGQGTLVTVSS
VL: EIVLTQSPATLSLSPGERATLSCRASQSVSSYLAWYQQKPGQAPRLLIYDASNRATGIPARFSGSGSGTDFTLTISSLEPEDFAVYYCQQSSNWPRTFGQGTKVEIK

What was measured:
[1] = molecular target: T1, human PD-1-his protein (Cat#:PD1-H5221, Acro biosystems Inc.) (human, UniProt Q15116 25-167); experiment: BLI (Octet RED96), cell supernatant antibody captured on AHC sensor, human PD-1-his in solution
T1 construct: not shown: his tag
Protocol: Briefly, AHC biosensors (anti-human IgG Fe capture, from ForteBio) were presoaked with 10 mM glycine (pH 1.5) for 3 seconds, and then dipped in a well with running buffer (0.5% w/v BSA in PBST) for 3 seconds, the soaking and dipping steps were repeated for three times. […] A new baseline was run for 100 seconds in another well with running buffer. Then the sensors were dipped in a well with serially diluted human PD-1-his protein (Cat#:PD1-H5221, Acro biosystems Inc., starting at 100 nM with a two-fold serial dilution) in running buffer for 120 seconds, and then immersed in a baseline well for […]. Finally, sensors were presoaked with 10 mM glycine (pH 1.5) for 30 seconds, and then were dipped in a well with running buffer for 30 seconds. The association and dissociation curves were fit to a 1:1 Langmuir binding model using ForteBio Data Analysis 8.1 evaluation software.

[2] = molecular target: T2, in house made human PD-1-Fc protein (human, biotin-labeled (sites not given)); experiment: cell-based blocking FACS: antibody pre-mixed with biotin-labeled human PD-1-Fc, added to GS-C2/PD-L1 cells expressing human PD-L1 (blocked ligand); unit from the axis 'Con of mAb, nM.'
T2 construct: also called biotin-labeled human PD-1-Fc
Protocol: (§1) GS-C2/PDL1 cells were harvested from cell culture flasks at the log phase, washed twice and re-suspended in PBS containing 2% v/v Fetal Bovine Serum (FACS buffer). GS-C2/PD-L1 cells, 0.6×10⁵ cells per welt, were incubated in 96 well-plates with 100 the antibody/PD1-Fc mixture for 40 minutes at 4° C. Cells were washed twice with FACS buffer, added with 100 R-Phycoerythrin Streptavidin (1:500 dilution in FACS buffer, Cat#:016-110-084, Jackson Immunoresearch), and incubated for 40 minutes at 4° C. in dark. Cells were washed twice and re-suspended in FACS buffer. Fluorescence was measured using a Becton Dickinson FACS Canto II-HTS equipment. Data was analyzed using Graphpad Prism software and IC₅₀ values were reported.

[3] = molecular target: T3, cynomolgus PD-1-his protein (Cat#:PD1-05223, Acro biosystems Inc.) (cynomolgus, UniProt B0LAJ3 25-170); experiment: indirect ELISA on coated cynomolgus PD-1-his; unit from the axis 'Con of mAb, nM.'
T3 construct: Bought protein used in Biacore and indirect ELISA; also called monkey PD-1; Cyno PD-1
Protocol: (§2) Briefly, 96-well micro plates were coated with 100 μl 2 μg/ml mouse PD-1-his (Cat#:50124-M08H, Sino Biological Inc) or 2 μg,/ml cynomolgus PD-1-his (Cat#:PD1-05223, Acro biosystems Inc.) in carbonate/bicarbonate buffer (pH 9.6) for 2 hours at 37° C. Plates were washed once with wash buffer (PBST, PBS+0.05% Tween-20) and then blocked with 200 μl blocking buffer (5% w/v non-fatty milk in PBST) for 2 hours at 37° C. […] ELISA plates were washed 4 times and incubated with Peroxidase AffiniPure goat anti-mouse IgG, Fcγ Fragment Specific (1:5000 dilution in PBST buffer, Cat#:115-035-071, Jackson ImmunoResearch Laboratories, Inc., 100 μl/well) or Peroxidase AffiniPure F(ab′)₂ Fragment Goat Anti-Human IgG, Fcγ fragment specific (Cat#:109-036-098, Jackson ImmunoResearch, for the controls) for 40 minutes at 37° C. After a final wash, plates were incubated with 100 μl/well TMB (Cat#:TMB-S-002, innoreagents) at room temperature. The reaction was stopped 3-10 minutes later with 50 μl/well 1M H₂SO₄, and the absorbance was read on a microplate reader using dual wavelength mode with 450 nm for TMB and 630 nm as the reference wavelength. Then the OD (450-630) values were plotted against antibody concentrations. Data was analyzed using GraphPad Prism software and EC₅₀ values were reported.

[4] = molecular target: T2, in house made human PD-1-Fc protein; experiment: blocking FACS: biotin human PD-1-Fc + antibody on GS-C2/PD-L1 cells (competitor: cell-surface human PD-L1)
Protocol: as §1

[5] = molecular target: T3, cynomolgus PD-1-his protein …; experiment: indirect ELISA on coated cynomolgus PD-1-his
[6] = molecular target: T2, in house made human PD-1-Fc protein; experiment: competitive ELISA: antibody pre-mixed with biotin-labeled human PD-1-Fc, added to coated human PD-L1-Fc (blocked ligand); unit from the axis 'Con of mAb, nM.'
Protocol: (§3) The activities of the anti-PD1 antibodies of the disclosure to block PD-L1-PD1 binding were measured in a competitive ELISA.
(§4) Briefly, 100 μl human PD-L1-Fc protein (prepared in-house with SEQ ID NO: 28) at 2 μg/mL in carbonate/bicarbonate buffer (pH 9.6) was coated on 96-well micro plates overnight at 4° C., Plates were washed with wash buffer (PBS+0.05% w/v Tween-20, PBST), and blocked with 5% w/v non-fatty milk in PBST for 2 hours at 37° C. […] After incubation at 37° C. for 40 minutes, plates were washed using wash buffer. […] Plates were washed again using wash buffer. Finally, TMB was added and the reaction was stopped using 1M H₂SO₄. The absorbance was read on a microplate reader using dual wavelength mode with 450 nm for TMB and 630 nm as the reference wavelength, then the OD (450-630) values were plotted against antibody concentrations. Data was analyzed using Graphpad Prism software and IC₅₀ values were reported.

[7] = molecular target: T2, in house made human PD-1-Fc protein; experiment: competitive ELISA: soluble Pembrolizumab pre-mixed with biotin-labeled human PD-1-Fc, added to coated Pembrolizumab (self-competition); unit from the axis 'Con of mAb, nM.'
[8] = molecular target: T2, in house made human PD-1-Fc protein; experiment: capture ELISA: antibody captured on anti-human IgG coated plate, biotin-labeled human PD-1-Fc detected with streptavidin-HRP; unit from the axis 'Con of mAb, nM.'
[9] = molecular target: T2, in house made human PD-1-Fc protein; experiment: as above; remark: listed apart in the source
[10] = molecular target: T3, cynomolgus PD-1-his protein …; experiment: indirect ELISA on coated cynomolgus PD-1-his; unit from the axis 'Con of mAb, nM.'; remark: listed apart in the source
Protocol: as §2

[11] = molecular target: T2, in house made human PD-1-Fc protein; experiment: competitive ELISA: antibody pre-mixed with biotin-labeled human PD-1-Fc, added to coated human PD-L1-Fc (blocked ligand); unit from the axis 'Con of mAb, nM.'; remark: listed apart in the source
Protocol: as §3, §4

[12] = molecular target: T2, in house made human PD-1-Fc protein; experiment: competitive ELISA: soluble Pembrolizumab pre-mixed with biotin-labeled human PD-1-Fc, added to coated Pembrolizumab (self-competition); unit from the axis 'Con of mAb, nM.'; remark: listed apart in the source
[13] = molecular target: T3, cynomolgus PD-1-his protein …; experiment: SPR (Biacore T200), antibody captured on Protein G chip, PD-1-his in flow, 1:1 fit

Binder	binding result [1]	IC50 [2] [nM]	EC50 [3] [nM]	IC50 [4] [nM]	EC50 [5] [nM]	IC50 [6] [nM]	IC50 [7] [nM]	EC50 [8] [nM]	EC50 [9] [nM]	EC50 [10] [nM]	IC50 [11] [nM]	IC50 [12] [nM]	Kd [13] [nM]
B1	no binding (tested: antigen series starting at 100 nM)												
B2		0.32	0.0957	0.49	0.2	0.345	0.0735	0.113	0.118	0.093	0.37	0.0759	
B3				0.52	0.23								5.64
